According to PMC5837747:

Biological target: HA-14-3-3β (UniProt P31946)
Test: GFP co-immunoprecipitation, HA blot, densitometry

Row | Substance | binding against the reference (reference: wild type (unstimulated and PMA-treated cells), sites S1093,S1163) | binding against the reference (reference: S1093A single mutant, sites S1163) | binding against the reference (reference: S1163A single mutant, sites S1093)
1 | mouse CdGAP (mCdGAP, GFP-CdGAP) (from UniProt A6X8Z5) S1093A/S1163A | weaker | – | –
2 | mouse CdGAP (mCdGAP, GFP-CdGAP) (from UniProt A6X8Z5) S1093A/S1163A double mutant | – | weaker | weaker
